B1: HA-tagged spinophilin, full length (amino acids 1-817, fragment A) (natural protein)
chain: not shown
B2: V5-tagged GluN2B C-terminal, cytosolic tail (amino acids 839-1484) (domain or fragment, human, UniProt Q13224 839-1484, looked up)
chain: EHLFYWQFRHCFMGVCSGKPGMVFSISRGIYSCIHGVAIEERQSVMNSPTATMNNTHSNILRLLRTAKNMANLSGVNGSPQSALDFIRRESSVYDISEHRRSFTHSDCKSYNNPPCEENLFSDYISEVERTFGNLQLKDSNVYQDHYHHHHRPHSIGSASSIDGLYDCDNPPFTTQSRSISKKPLDIGLPSSKHSQLSDLYGKFSFKSDRYSGHDDLIRSDVSDISTHTVTYGNIEGNAAKRRKQQYKDSLKKRPASAKSRREFDEIELAYRRRPPRSPDHKRYFRDKEGLRDFYLDQFRTKENSPHWEHVDLTDIYKERSDDFKRDSVSGGGPCTNRSHIKHGTGDKHGVVSGVPAPWEKNLTNVEWEDRSGGNFCRSCPSKLHNYSTTVTGQNSGRQACIRCEACKKAGNLYDISEDNSLQELDQPAAPVAVTSNASTTKYPQSPTNSKAQKKNRNKLRRQHSYDTFVDLQKEEAALAPRSVSLKDKGRFMDGSPYAHMFEMSAGESTFANNKSSVPTAGHHHHNNPGGGYMLSKSLYPDRVTQNPFIPTFGDDQCLLHGSKSYFFRQPTVAGASKARPDFRALVTNKPVVSALHGAVPARFQKDICIGNQSNPCVPNNKNPRAFNGSSNGHVYEKLSSIESDV

Assays:
[1] = target: B2; test: co-IP
[2] = target: B1; test: co-IP

Binder: B1
- fold change of co-IP with IBMX/forskolin against vehicle (V5 IP) [1]: 3.05 ratio to control
- fold change of co-IP with PKAc overexpressed against without (GluN2B_(Tail) IP) [1]: 10.6 ratio to control

Binder: B2
- fold change of co-IP with IBMX/forskolin against vehicle (HA IP) [2]: 1.48 ratio to control
- fold change of co-IP with PKAc overexpressed against without (spinophilin IP) [2]: 2.14 ratio to control

Reference: article PMC7537107 (Journal of neurochemistry, 2019)
